Test results from patent US20250154263A1 (FEINSTEIN INSTITUTES FOR MEDICAL RESEARCH, published 2025).
Each block holds one binder with its values, some of them ahead of it.

Molecular target: T1, CLECL1 on the cell surface (CLECL1+ CLL PF cells) (human, UniProt Q8IZS7 1-167)
T1 construct: Native CLECL1 on patient CLL cells or the MEC1 CLL line; also called DCAL-1
T1 sequence: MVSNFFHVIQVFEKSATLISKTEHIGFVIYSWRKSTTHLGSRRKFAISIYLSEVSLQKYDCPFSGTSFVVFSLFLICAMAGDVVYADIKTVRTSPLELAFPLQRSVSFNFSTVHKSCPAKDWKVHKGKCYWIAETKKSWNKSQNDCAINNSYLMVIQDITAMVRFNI
Test: flow cytometry (FIG. 8E; cells not named in the legend)

binding result: binds
B1: mAb 17.2 (antibody, mouse IgG1, V domains shown)
VH: EVQLQQSGAELVRSGASVKLSCTTSGFNIKDFYIHWVRQRPEQGLEWIGWIDPKNDDTEYAPRFQGKATVTADTSSNTAYLHLSGLTSEDTAVYYCNGRYPTMDFWGQGTSVT
VL: EIVLTQSPITMTTSPGEKITITCSASSSISSHYLHWYQQKPGFSPKLLIYRASNLASGVPTRFSGSGSGTSYSLTIDTMEAEDVATYFCQQGSSLPLTFGAGTKLELK
notes: also called 17.2.3; hybridoma #17

binding result: binds
B2: mAb 243.6 (antibody, mouse IgG1, V domains shown)
VH: EVQLQQSGTVLVRSGASVKLSCTASGFNIKEYYIHWVKQRPEQGLEWIAWIDLENGESEYAPKFQGKATLTADTSSNTAYLQLSGLTSEDTAVYYCNAFHGNYAHNYAIDYWGQGTSVTVSQ
VL: DIVMSQSPSSLAVSAGEKVTMTCKSSQSLLNSRTRKNYLAWYQQKPGQSPKLLIYWASTRKSGVPDRFTGSGSGTDFTLTISSVQAEDLAVYYCKQSYNLRTFGGGTKLEIK
notes: also called 243.6.1
